Publication PMC11971343, “Role of charges in a dynamic disordered complex between an IDP and a folded domain” (Nature Communications, 2025)
Where a chain is given by its changes, count along the chain named.

B1: H1-GD variant 6K1 (domain or fragment, human)
chain: DHPKYSDMIVAAIQAEKNRAGSSRQSIQQYIKSHYKVGENADSQIKLSIQRLVTTGVLQQTQGVGASGSFRLAK
notes: net charge +5; source: produced as previously described [16,34,52,78]
B2: H1-GD variant 6K2 (domain or fragment, human)
chain: B1 chain with K17Q, Q29K, Q59K, K74Q
notes: as for B1
B3: RST domain of the plant protein RCD1 (domain or fragment)
chain: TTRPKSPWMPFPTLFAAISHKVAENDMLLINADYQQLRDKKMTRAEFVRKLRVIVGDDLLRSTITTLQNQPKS
notes: folded RST domain of the plant protein RCD1, net charge +5; also called RCD1-RST; source: produced as previously described [16,34,52,78]
B4: prothymosin α (ProTα), isoform 2 (natural protein, UniProt P06454-2 1-110, looked up)
chain: MSDAAVDTSSEITTKDLKEKKEVVEEAENGRDAPANGNANEENGEQEADNEVDEEEEEGGEEEEEEEEGDGEEEDGDEDEEAESATGKRAAEDDEDDDVDTKKQKTDEDD
notes: prothymosin α, isoform 2, used for NMR (unlabelled, 15N- or 13C,15N-labelled); BMRB 27215 holds its assignments; Isotope-labelled and unlabelled forms are treated as one molecule; also called 15N-ProTα; source: produced as previously described [16,34,52,78]

Legend:
Conditions in all cases: both partners purified
[1] = target: B4; test: NMR titration; 1H-15N HSQC of 15N-ProTα (50 μM) with 4x molar ratio of GD-WT or a GD variant; sum of CSPs normalised to that with GD-WT at the same ratio and batch; 283 K, TBSK buffer, pH 7.4
[2] = target: B4; test: NMR titration; 1H-15N HSQC of 15N-ProTα (28 μM) with GD up to 8x molar ratio, or 8x RST or CaM; 15N-ProTα (37 μM) with 2x full-length H1; 283 K, TBSK buffer (10 mM Tris, 155 mM KCl, 0.1 mM EDTA), pH 7.4
[3] = target: T1, wild-type human histone H1.0, full length (produced recombinantly, for NMR) (human, UniProt P07305 1-194); test: as above
T1 construct: human linker histone H1.0, wild type, full length; also called full-length H1; linker histone H1.0; source: produced recombinantly [16]
T1 sequence (P07305 whole entry): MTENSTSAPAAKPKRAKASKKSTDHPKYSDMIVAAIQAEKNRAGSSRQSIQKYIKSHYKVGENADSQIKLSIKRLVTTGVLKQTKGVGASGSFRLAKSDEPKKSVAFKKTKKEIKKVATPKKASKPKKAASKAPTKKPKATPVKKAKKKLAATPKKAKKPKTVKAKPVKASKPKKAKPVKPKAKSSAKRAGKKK

Row | Relative CSPsum [1] | Binder | also measured
1 | 0.11 | B1 | 
2 | 0.13 | B2 | 
3 |  | B3 | binding result [2]: binds
4 |  | B4 | binding result [3]: binds
